Assay results: paper PMC9907729 (Immunity, 2022)
Where a chain is given by its changes, count along the chain named. Numbers in names are those of the source. Values belong to the binder of their own block, whether it stands above or below them.

Experiments:
[1] = target: the molecule itself; assay: SEC-MALS
[2] = target: the molecule itself; assay: SEC
[3] = target: T1, MBP-tagged FoxP3^RBR-forkhead (mouse, UniProt Q99JB6 284-423); assay: pull-down
T1 sequence (looked up): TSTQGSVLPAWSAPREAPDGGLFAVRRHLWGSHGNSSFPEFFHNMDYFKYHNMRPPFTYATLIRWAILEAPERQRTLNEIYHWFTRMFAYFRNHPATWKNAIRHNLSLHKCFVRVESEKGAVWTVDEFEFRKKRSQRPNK

B1: NusA-tagged FoxP3^RBR-forkhead R337Q (domain or fragment, mouse, UniProt Q99JB6 284-423, looked up)
chain: T1 sequence (looked up) with R54Q
stoichiometry N [1]: 2

B2: Recombinant Y373V FoxP3^RBR-forkhead (domain or fragment, mouse, UniProt Q99JB6 284-423, looked up)
chain: T1 sequence (looked up) with Y90V
stoichiometry N [2]: 4

binding result [3]: binds
B3: GST-tagged Runx1 (residue 371–451) (domain or fragment, mouse, UniProt Q03347 371-451, looked up)
chain: GSPSYHLYYGASAGSYQFSMVGGERSPPRILPPCTNASTGAALLNPSLPSQSDVVETEGSHSNSPTNMPPARLEEAVWRPY

B4: NusA-tagged FoxP3^ΔN (domain or fragment, mouse, UniProt Q99JB6 188-423, looked up)
chain: GSYPLLANGVCKWPGCEKVFEEPEEFLKHCQADHLLDEKGKAQCLLQREVVQSLEQQLELEKEKLGAMQAHLAGKMALAKAPSVASMDKSSCCIVATSTQGSVLPAWSAPREAPDGGLFAVRRHLWGSHGNSSFPEFFHNMDYFKYHNMRPPFTYATLIRWAILEAPERQRTLNEIYHWFTRMFAYFRNHPATWKNAIRHNLSLHKCFVRVESEKGAVWTVDEFEFRKKRSQRPNK
stoichiometry N [1]: 2
